# In US20260209316A1:
# B1: Fab generated from 291S (Fab, V domains shown)
# VH: QVQLQESGPGLVKPSQTLSLTCTVSGGSFSSGFYWSWIRQRPGKGLEWVGYTYYSGSTYYNPSLQSRVTISVDTSKNQFSLNLSSVTAADTAVYHCARADYGGLFDYWGQGILVTVSS
# VL: QSVLTQPSSLSASPGASASLTCTLRSGINVGTYRIFWYQQKPGSPPQFLLRYNSDSDKQQGSGVPSRFSGSKDASANAGILLISGLQSEDEADYYCMIWHTSAWVFGGGTKLTVL
# B2: Fab generated from 246S (Fab, V domains shown)
# VH: QVQLVQSGAEVKKPGSSVKVSCKASGDTFSTYAITWVRQAPGQGLEWMGRIIPILGVTNYAQKFQGRVTFTADKSTITAYLELVNLRSEDTAVYYCTRDGYGGRDLLLNYYWGQGTLVTVSS
# VL: EIVLTQSPGLLFWFPGERATLSCRASQSVSSSKLAWYQQKPGQAPRLLIYGASSRAPGIPDRFSGSGSGTDFTLTINRLEPEDFAVYFCQQYGSAQWTFGQGTKVDFK
# Experiments:
# [1] = target: thermolysin-cleaved SUDV GP (GP(S)THL) (Sudan virus (SUDV)) (UniProt Q7T9D9); experiment: BLI, Fab, pH 5.3
# [2] = target: thermolysin-cleaved SUDV GP (GP(S)THL) (Sudan virus (SUDV)) (UniProt Q7T9D9); experiment: BLI, Fab, pH 7.4
# [3] = target: full-length Sudan GP (GPFL) (Sudan virus (SUDV)) (UniProt Q7T9D9); experiment: BLI, Fab, pH 5.3
# [4] = target: full-length Sudan GP (GPFL) (Sudan virus (SUDV)) (UniProt Q7T9D9); experiment: BLI, Fab, pH 7.4
Binder,Kd [1] [nM],koff [1] [s⁻¹],kon [1] [M⁻¹ s⁻¹],Kd [2] [nM],koff [2] [s⁻¹],kon [2] [M⁻¹ s⁻¹],Kd [3] [nM],koff [3] [s⁻¹],kon [3] [M⁻¹ s⁻¹],Kd [4] [nM],koff [4] [s⁻¹],kon [4] [M⁻¹ s⁻¹]
B1,0.67,0.000166,248000,0.19,5.1e-05,264000,–,–,–,–,–,–
B2,–,–,–,–,–,–,34.2,0.000384,11200,23.2,0.000493,21200
